{"source": "paper PMC11242853", "about": "“The Antimicrobial Activity of Human Defensins at Physiological Non-Permeabilizing Concentrations Is Caused by the Inhibition of the Plasma Membrane H^+-ATPases” (International Journal of Molecular Sciences, 2024)", "key": {"C. albicans cells [1]": {"test_system": "C. albicans cells", "experiment": "Total cellular ATP (BacTiter-Glo)", "assay_type": "cell-based, Candida albicans", "conditions": "defensins at NPIC, human lactoferrin 5 μM, BM2 peptide 0.25 μM; 10^6 cells/mL; BacTiter-Glo luminescence", "method": "Total ATP was measured using the BacTiter-Glo^TM Microbial Cell Viability Assay (Promega Co., Madison, WI, USA) according to the manufacturer’s instructions. […] Aliquots (100 µL) were incubated (90 min at 37 °C) with human defensins (NPICs). Human lactoferrin (5 μM) or BM2 peptide (0.25 μM) was used as positive controls. One hundred microliters of the incubation mixture was transferred to an opaque 96-well plate, mixed with an equal volume of BacTiter-Glo^TM reagent, and incubated for 15 min in the dark. The reagent uses a thermostable luciferase to generate luminescence in an ATP-dependent manner. The emitted luminescence was detected using a Varioskan Flash multimode reader (Thermo Scientific, Waltham, MA, USA) with a 10 s shaking and 1 s integration time. A calibration curve was generated for each experiment with ATP standards ranging from 1 to 1000 nM. All assays were performed at least three times in duplicate."}, "C. albicans cells [2]": {"test_system": "C. albicans cells", "experiment": "Extracellular potassium measurement (K+-efflux, ICP-MS)", "assay_type": "cell-based, Candida albicans", "conditions": "peptides at NPIC / microbicidal concentrations; 10^7 cells/mL, 90 min at 37 °C; steady state compared with maximum intracellular K+ of untreated cells", "method": "Potassium measurements were performed via inductively coupled plasma mass spectrometry using an Agilent 7700x ICP-MS (Agilent Technologies, Santa Clara, CA, USA). C. albicans cells were cultured in SDB for 16–20 h at 30 °C. The cells were then subcultured in the same media to the mid-logarithmic growth phase and rapidly washed in sterile, deionized, double-distilled water. The cells (10^7 cells/mL) were immediately incubated with the peptides (NPIC) for 90 min at 37 °C. The tubes were centrifuged at 1100× g for 10 min and the supernatants were collected and stored at 4 °C until analysis. The percentage of cytosolic potassium released from cell suspensions treated with nystatin (50 μM) was determined in positive control assays. Total cellular K^+-content (100% value) was measured in the supernatant of cell suspensions previously treated with 0.5% (v/v) HClO4 alone, heated for 1 h at 95 °C, and centrifuged to remove cell debris. Results are expressed as the percentage (means ± SD) of K^+-release relative to the total cellular K^+-content from duplicates of at least three independent assays."}, "P. aeruginosa cells": {"test_system": "P. aeruginosa cells", "experiment": "Oxygen consumption measurement (polarographic), P. aeruginosa", "assay_type": "cell-based, Pseudomonas aeruginosa", "conditions": "after 30 min; defensins 2 x NPIC, human lactoferrin 20 μM, piericidin A 32 µM; preincubated 15 min at 37 °C; untreated cells 83% ± 2%; means ± SD, three experiments", "method": "(§1) Oxygen consumption by C. albicans and P. aeruginosa cells was determined by polarographically using a biological oxygen monitor (dual digital-model 20; Rank Brothers Ltd., Cambridge, UK) at 25 °C. The apparatus consisted of a twin water-jacketed closed sample chamber, which enabled a control experiment to be conducted concurrently. The cells were grown to mid-log phase in SDB (C. albicans) or TSB (P. aeruginosa), washed twice in Tris buffer, and resuspended in the same buffer. Cell suspensions (approximately 10^7 cells/mL) were preincubated with defensins (2 x NPIC), human lactoferrin (20 μM), or piericidin A (32 μM) for 15 min at 37 °C. Oxygen consumption was recorded at 5-min intervals for a period of 30 min. Three independent experiments were performed, and the data are means ± SD."}, "[3]": {"test_system": "Candida albicans ATCC 10231", "experiment": "Antimicrobial spread-plate (CFU) killing assay, C. albicans", "assay_type": "cell-based", "method": "To determine whether the above microbicidal concentrations exert a permeabilizing effect on fungal and bacterial membranes, the influx of the fluorescent nucleic acid-binding dye propidium iodide (PI) in cells incubated with the peptides was assessed. In cells, dye uptake reflects membrane permeabilization, as PI itself cannot permeate through an intact phospholipid bilayer. […] To select an antimicrobial but non-permeabilizing concentration of each peptide for further assays, we defined as a non-permeabilizing inhibitory concentration (NPIC) the antimicrobial inhibitory concentration (≤10% viable cells) that permeabilized ≤ 10% of cells incubated (90 min at 37 °C) in buffer solution.\n(§2) Microbial susceptibility to the peptides was determined in a spread-plate assay as described previously. Briefly, cell suspensions (10^6 cells/mL) in Tris buffer (10 mM Tris-HCl, pH 7.4) were incubated for 90 min at 37 °C with 2-fold serial peptide dilutions. Peptide concentrations ranged from 0 to 2 μM. After incubation, the number of viable cells was determined by plating aliquots (100 μL) in duplicate on plates (SDA for C. albicans, TSA for P. aeruginosa, and M17G agarified medium for L. lactis) that had been dried for 30 min at room temperature in a laminar flow hood. Plates were incubated for 24–48 h at 30 °C (C. albicans and L. lactis) or 24 h at 37 °C (P. aeruginosa). Dilutions yielding 50–200 colonies were counted. Cell viability values, expressed as colony-forming units (CFUs), were calculated relative to the incubation without added peptides and represent the means ± standard deviation (SD) from duplicates of three independent experiments. For inhibition assays, unless otherwise noted, cell suspensions were preincubated (15 min at 37 °C) with the appropriate inhibitor prior to the addition of peptides, but the inhibitor was present throughout the incubation period with the peptide (90 min at 37 °C). Other specific experimental conditions are described as appropriate. In some experiments, the concentrations of human lactoferrin against C. albicans (5 μM), P. aeruginosa (1 μM), and L. lactis (0.065 μM) were used in the control assays. In various viability assays, BM2 peptide (0.25 μM), CCCP (50 μM), colistin (4 μg/mL), nystatin (50 μM), oligomycin A (16 μg/mL), piericidin A (32 μM), and TEA (10 mM) were used."}, "[4]": {"test_system": "Lactococcus lactis subsp. lactis (strain IL1403)", "experiment": "Antimicrobial spread-plate (CFU) killing assay, fermenting L. lactis", "assay_type": "cell-based", "conditions": "human lactoferrin 0.062 µM; fermentative conditions; relative to untreated control", "method": "as §2, with “In some experiments, the concentrations of human lactoferrin against C. albicans (5 μM), P. aeruginosa (1 μM), and L. lactis (0.065 μM) were used in the control assays. In various viability assays, BM2 peptide (0.25 μM), CCCP (50 μM), colistin (4 μg/mL), nystatin (50 μM), oligomycin A (16 μg/mL), piericidin A (32 μM), and TEA (10 mM) were used.” left out"}, "C. albicans cells [5]": {"test_system": "C. albicans cells", "experiment": "Oxygen consumption measurement (polarographic), C. albicans", "assay_type": "cell-based, Candida albicans", "conditions": "after 30 min; defensins 2 x NPIC, human lactoferrin 20 μM, piericidin A 32 µM; preincubated 15 min at 37 °C; untreated cells 94% ± 2%; means ± SD, three experiments", "method": "as §1"}}}
{"molecule": "human lactoferrin: Recombinant human apo-lactoferrin (hLf), 691 amino acid γ-core protein that inhibits microbial PM H+-ATPases; control (protein, UniProt P02788 20-710, looked up, apo form, control) Lactotransferrin: GRRRSVQWCAVSQPEATKCFQWQRNMRKVRGPPVSCIKRDSPIQCIQAIAENRADAVTLDGGFIYEAGLAPYKLRPVAAEVYGTERQPRTHYYAVAVVKKGGSFQLNELQGLKSCHTGLRRTAGWNVPIGTLRPFLNWTGPPEPIEAAVARFFSASCVPGADKGQFPNLCRLCAGTGENKCAFSSQEPYFSYSGAFKCLRDGAGDVAFIRESTVFEDLSDEAERDEYELLCPDNTRKPVDKFKDCHLARVPSHAVVARSVNGKEDAIWNLLRQAQEKFGKDKSPKFQLFGSPSGQKDLLFKDSAIGFSRVPPRIDSGLYLGSGYFTAIQNLRKSEEEVAARRARVVWCAVGEQELRKCNQWSGLSEGSVTCSSASTTEDCIALVLKGEADAMSLDGGYVYTAGKCGLVPVLAENYKSQQSSDPDPNCVDRPVEGYLAVAVVRRSDTSLTWNSVKGKKSCHTAVDRTAGWNIPMGLLFNQTGSCKFDEYFSQSCAPGSDPRSNLCALCIGDEQGENKCVPNSNERYYGYTGAFRCLAENAGDVAFVKDVTVLQNTDGNNNEAWAKDLKLADFALLCLDGKRKPVTEARSCHLAMAPNHAVVSRMDKVERLKQVLLHQQAKFGRNGSDCPDKFCLFQSETKNLLFNDNTECLARLHGKTTYEKYLGPQYVAGITNLKKCSTSPLLEACEFLRK", "values": [{"measurement": "increase in ATP levels compared to the untreated control", "setting": "C. albicans cells [1]", "result": "~ 6 fold"}, {"measurement": "K^+-efflux pattern in C. albicans", "setting": "C. albicans cells [2]", "result": "partial K^+-efflux"}, {"measurement": "O2 consumption of P. aeruginosa", "setting": "P. aeruginosa cells", "result": "87% ± 2%"}, {"measurement": "effect of high extracellular K+ on candidacidal activity", "setting": "[3]; 50 mM KCl, defensins at NPIC, hLf 5 μM, BM2 0.25 μM, nystatin 50 μM", "result": "significantly decreased"}, {"measurement": "non-permeabilizing inhibitory concentration (NPIC), C. albicans", "setting": "[3]; antimicrobial concentration (≤10% viable cells) that permeabilized ≤10% of cells, 10^6 cells/mL, Tris buffer pH 7.4, 90 min at 37 °C, from Figure 1 data, duplicates of three experiments", "result": 5, "unit": "µM"}, {"measurement": "effect of piericidin A on candidacidal activity", "setting": "[3]; cells preincubated 15 min at 37 °C with 32 µM piericidin A, then peptides (NPIC) 90 min", "result": "significantly (p < 0.001) inhibited"}, {"measurement": "effect of oligomycin A on candidacidal activity", "setting": "[3]; preincubated 15 min at 37 °C with 16 μg/mL oligomycin A, peptides at NPIC", "result": "significantly reduced"}, {"measurement": "effect of Tok1p inhibition (TEA) on candidacidal activity", "setting": "[3]; preincubation 15 min at 37 °C with 10 mM TEA+, peptides at NPIC", "result": "reduced"}, {"measurement": "cell viability of L. lactis", "setting": "[4]", "result": "13% ± 5%"}, {"measurement": "oxygen consumption percentage of C. albicans", "setting": "C. albicans cells [5]", "result": "90% ± 3%"}]}
